Consider one substance from PMC10594996.

Assay [1] has as its target NHP IgG (rhesus macaque serum IgG) (rhesus macaque (Macaca mulatta)). Kind of assay: SPR; BIAcore X100; Protein A immobilised on a CM5 chip ([…]. A general note: In SPR one partner is held on a chip, and binding of the other changes the refractive index at the surface.
Assay [2] has as its target human IgG (human). Kind of assay: SPR; BIAcore X100; Protein A immobilised on a CM5 chip (target 5000 RU); human or NHP IgG at 20 µg/ml captured on the test flow cell to 500 RU; various concentrations of recombinant human CD64 flowed at 10 µl/min; control flow cell with Protein A only; regeneration with 10 mM glycine pH 2.0.

In general, Kd refers to a measure of binding affinity in units of concentration. For the substance “recombinant human CD64 receptor (from UniProt P12314 16-374)”, the figures for the Kd in assay [1] and in assay [2] were 162 nM and 21.9 nM, respectively.
